Measured values taken from US20200040057A1 (IMMATICS BIOTECHNOLOGIES, published 2020).

B1: DDX5-001 (YLLPAIVHI from DDX5) (peptide)
peptide: YLLPAIVHI
notes: Negative control peptide for stimulations; also called 447

Key:
HLA-B*07 [1] = target: HLA-B*07 (human); assay: UV peptide exchange ELISA; ++ = yield >20%
HLA-B*07 [2] = target: HLA-B*07 (human); assay: UV peptide exchange ELISA; + = yield >10%
HLA-A*02:01 = HLA-A*02:01 (human); assay: control peptide-MHC complex on beads, in vitro T-cell priming
Description: 800.000 beads/200 μl were coated in 96-well plates in the presence of 4×12.5 ng different biotin-pMHC, washed and 600 ng biotin anti-CD28 were added subsequently in a volume of 200 μl. Stimulations were initiated in 96-well plates by co-incubating 1×10⁶ CD8+ T cells with 2×10⁵ washed coated beads in 200 μl TCM supplemented with 5 ng/ml IL-12 (PromoCell) for 3 days at 37° C. Half of the medium was then exchanged by fresh TCM supplemented with 80 U/ml IL-2 and incubating was continued for four days at 37° C. This stimulation cycle was performed for a total of three times. […] Finally, multimeric analyses were performed by staining the cells with Live/dead near IR dye (Invitrogen, Karlsruhe, Germany), CD8-FITC antibody clone SK1 (BD, Heidelberg, Germany) and fluorescent pMHC multimers. For analysis, a BD LSRII SORP cytometer equipped with appropriate lasers and filters was used. Peptide specific cells were calculated as percentage of total CD8+ cells. Evaluation of multimeric analysis was done using the FlowJo software (Tree Star, Oregon, USA). In vitro priming of specific multimer+CD8+ lymphocytes was detected by comparing to negative control stimulations.

Binder	peptide exchange yield (HLA-B*07 [1]) [%]	further results
LPASAEPKGTM	20 to 50	–
KPRGPIDI	20 to 50	–
ALLLRGVTL	20 to 50	–
EPNPVEEIF	20 to 50	–
EPLSVTASY	20 to 50	–
TVYGEPRKL	20 to 50	–
RPSGTAGAALLA	20 to 50	–
LPLKFFPII	–	peptide exchange yield (HLA-B*07 [2]): 10 to 20%
MARTGGMVVI	20 to 50	–
B1	–	binding result (HLA-A*02:01): binds
MALSVLRLAL	20 to 50	–
YPLQQTNVY	–	peptide exchange yield (HLA-B*07 [2]): 10 to 20%
LPKPDLPQLI	–	peptide exchange yield (HLA-B*07 [2]): 10 to 20%
MPEADLKRIF	20 to 50	–
KPSAVKDSIY	20 to 50	–
SPLIGDFPAF	20 to 50	–
IALMKLAGPL	20 to 50	–
LPMPAITWY	20 to 50	–
VPAHLVAA	20 to 50	–
IPFADVKSF	20 to 50	–
HAAASFETL	20 to 50	–
TDTPSTTPTTI	20 to 50	–
KPGLPGLK	–	peptide exchange yield (HLA-B*07 [2]): 10 to 20%
IPFSVDEI	–	peptide exchange yield (HLA-B*07 [2]): 10 to 20%
LPLQQYKLV	–	peptide exchange yield (HLA-B*07 [2]): 10 to 20%

Binder	peptide exchange yield (HLA-B*07 [1]) [%]	further results
AVSSHHNVI	20 to 50	–
MPREDAHF	–	peptide exchange yield (HLA-B*07 [2]): 10 to 20%
IPLEIQKL	–	peptide exchange yield (HLA-B*07 [2]): 10 to 20%
TPTRPLPSA	20 to 50	–
SVIGPNSRL	20 to 50	–
IAYPSLREAAL	20 to 50	–
APAAPAAVPS	20 to 50	–
KIIASGNHL	20 to 50	–
SQRPPATSQA	20 to 50	–
FLIPRAGWLAGL	20 to 50	–
FTVSSSSAM	20 to 50	–
AQNPAGTAL	–	peptide exchange yield (HLA-B*07 [2]): 10 to 20%
KAHVRIEL	20 to 50	–
KATEYVHSL	–	peptide exchange yield (HLA-B*07 [2]): 10 to 20%
LPLLAGTLLL	20 to 50	–
IPENRVVSY	20 to 50	–
IPVAIKEL	20 to 50	–
MPPLLIVAF	20 to 50	–
SAAARALLP	–	peptide exchange yield (HLA-B*07 [2]): 10 to 20%
LPPHIFAI	20 to 50	–
KSKQVITLL	–	peptide exchange yield (HLA-B*07 [2]): 10 to 20%
SPFWIHQA	20 to 50	–
AAHEFGHVL	20 to 50	–
MLKTTLTAF	–	peptide exchange yield (HLA-B*07 [2]): 10 to 20%
VPLPAGGGTVLT	–	peptide exchange yield (HLA-B*07 [2]): 10 to 20%
